Variants at the floor of the assay were thinned out.
B1: TPR 5TU (parent)
chain: GGAUCUUCUCGAUCUAACAAAAAAGACAAAUCUGCCACAAAGCUUGAGAGCAUCUUCGGAUGCAGAGGCGGCAGCCUUCGGUGGCGCGAUAGCGCCAACGUUCUCAACUAUGACACGCAAAACGCGUGCUCCGUUGAAUGGAGUUUAUCAUG

Variants of: B1
Assay: polymerase ribozyme fitness, log enrichment relative to wild type (log ratio); higher = more active; in vitro selection for triplet polymerase activity
Method in brief: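 Genotype fitness is the logarithm of its enrichment divided by wild-type enrichment, using inverse-variance-weighted averages of replicates. That logarithm is base 2. Enrichment was measured by Illumina sequencing of input and output libraries from one triplicate in vitro selection round, with frozen incubation at −7 °C, on PCR-built, transcribed mutant libraries of each subunit of a heterodimeric triplet polymerase ribozyme, retaining genotypes with ≥10 input reads and ≥1 read per output.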

Variant	polymerase ribozyme fitness (log ratio)
C8U U9G G70A C76A C87G A89C	≤ -4.2
U9A C14U A49U C51U G86U A89U	≤ -4.2
C8A C10U C75A G86A A98U A138C	≤ -4.2
U9A A16G C54U C75U C76A A120U	≤ -4.2
U9A A26U A47C A49G G84A G86C	≤ -4.2
U9A A22C A37U U45A U53A G84A A147U	≤ -4.2
C8G C10U C51A G80C C95A U102G G124U A137C	≤ -4.2
C8G C10A A30C U56A C57G C87U U102G G143C	≤ -4.2
C8U G88U C93U	-4.14
C8U A52C G68C	≤ -4.2
C8A U31G C36U C114U A142C	-4.19
U9C C38U A52U C75G G92U G94A G136U U144G	≤ -4.2
U9C A22C C54U G71U G84A C95A A98U C108A C114U A115C	≤ -4.2
C8G C18G C57G G83U C118U G128A	≤ -4.2
U9C G50C C75G C85G C125A	≤ -4.2
C8U A19U G62A G86C A113C	≤ -4.2
C8U A28U U53A G67A C69U G88C A89U A98G A138C	≤ -4.2
U9A A23C C35G C75U G92U C95G U127A	≤ -4.2
C8G A47C C54G	≤ -4.2
C8U C38U A49G C79G C93A C103G G136U	≤ -4.2
C8U C27U A115G	-4.06
C8A G58C	-4.1
U9A C85A U90C U104A U127G G140A	≤ -4.2
C8U G81A G88A	≤ -4.2

Variant	polymerase ribozyme fitness (log ratio)
C8A U13G A21G A28G G68U G81A C118G G143U	≤ -4.2
C8G A23U A30U G42C G83C A97U	≤ -4.2
C8G A20C G67C G68C A113U	≤ -4.2
C8U G58C	-2.7
C8G G71A G74A C79U C87A C116A	≤ -4.2
C8G C27G C36G A39C C85A	≤ -4.2
C8G A12C A23G A52U C57U C93A C95G A110U	≤ -4.2
U9C U15G C54A G67C G84A G117A	≤ -4.2
C8G U55A	-2.91
U9A U55G U78G G143C	≤ -4.2
C8G A23U C27G A40G A49C C87U U104G U134G G140A	≤ -4.2
C8U A22U C27U G70A C85A A89U G92U	≤ -4.2
C8A C18G A40G C54G A73C C87A U90A C114U	≤ -4.2
U9A A24U A37C G42C G50C G58A C85G A91C U148A	≤ -4.2
U9A G50A G94U	≤ -4.2
C8G U61G G81A C87U G92C A121G C132A U144A G152A	≤ -4.2
C8G A24G C54U G68A G71A A91U C95A	≤ -4.2
U9A C125G	≤ -4.2
U9C A22C C54U C57U G100U C105G	≤ -4.2
U9C A66G C76G G92U C114A	≤ -4.2
U9A A41G A91U C95A C96G U102G G133A U135C	≤ -4.2
C8U U56A	-3.09
C8G C14U A29U G50U C54U C75G A119U	≤ -4.2
U9A U15C C35U G71A C72U U77G C87A A119U G124C	≤ -4.2

Variant	polymerase ribozyme fitness (log ratio)
C8A U56A C79U G84C G112A C131U U146A	≤ -4.2
U9A A20C A26G A28U G67U U82C U90G G124A U134C U146A	≤ -4.2
U9C A21U G48A A91U C99U	≤ -4.2
C8A C10U U33A G81U C87A C103G A147C	≤ -4.2
C8G U31A G34U C57G C93G	≤ -4.2
C8G A28U C87U C105U	≤ -4.2
C8U C85G	-3.44
C8U G83U A97G A142U	-4.17
U9A G141C	-3.23
U9A G141A	-2.94
C8U G59A C116U	-3.27
C8G U53C G58C C79U A89G U139C	≤ -4.2
U9A A17U G58A U151A	≤ -4.2
C8U U44G U55A C79U G88A A110U	≤ -4.2
C8G G83A A97U U127A	≤ -4.2
C8A A64C C72A C95U C116G A121C A138C	≤ -4.2
C8G A16U C79G G141A	≤ -4.2
C8A G25U U31A U82C C118G U145C	≤ -4.2
C8A U56A A66C G94A A98U	≤ -4.2
C8U C27A A29U A66U G67A A120U U134A	≤ -4.2
C8G U55G C72U G84U G136A	≤ -4.2
C8G G11A A52G A89U C93G	≤ -4.2
C8U C43G A47U A64G G70A C79G C99G U135C G136C U145A	≤ -4.2
C8A U13G G50C C76G C118A	≤ -4.2

Variant	polymerase ribozyme fitness (log ratio)
C8A G42A G59U G67C	≤ -4.2
C8U A30U U44A A97G U101G A113G C132U C149G A150U	≤ -4.2
C8A U144C	-4.16
U9C A26G U55A A122U	≤ -4.2
U9A G86A C93U G141C	≤ -4.2
C8U C10G A29U C85U C116U	≤ -4.2
C8U G141C	-2.78
C8A G48C U55A	≤ -4.2
C8A C18U A20G U45A G59C G62A C76U C114G	≤ -4.2
C8G C35G C105G U144A	≤ -4.2
C8G A22C A24U C69U A73U C93U	≤ -4.2
U9C U33G A52C C93G A110U	≤ -4.2
C8A C57U G67C C95A A97G U151A	≤ -4.2
U9C A22C C96G C99G G128U	≤ -4.2
C8U C43U C85U G100A A142U	≤ -4.2
C8G A24G A30G G70A G136C	≤ -4.2
U9C C10U A16U A19C C85G G94C C105U A106U	≤ -4.2
C8A C35U C43A G83C G141U	≤ -4.2
C8A A52C C87A	≤ -4.2
U9C C54U C85A G136C	≤ -4.2
C8A C14U A37G C54U C85U	≤ -4.2
C8U A20G	-3.94
C8G A29G A60U U77A C93A C123U	≤ -4.2
U9C A73U	-4.1

Variant	polymerase ribozyme fitness (log ratio)
C8U G83C C125U	≤ -4.2
U9A A41U A52C G62U C87G A89G C95U C116A A142C U146A A150C	≤ -4.2
C8G A29C G42C	≤ -4.2
U9A A23C U31G A73U C93G A106G G117A G133A A150G	≤ -4.2
C8G C85U G88U U145C	≤ -4.2
C8U G92U	-3.35
C8U G59C	-2.99
U9C A47U	-3.94
C8G C125A	-3.82
U9A G25U C36U G50C G86A	≤ -4.2
U9C C57G G140C	≤ -4.2
C8G G50C U55C G100A A115G U127C	≤ -4.2
C8U G42C C51U U61G C95A C125G U127G A137U C149G	≤ -4.2
C8U C75A G86U A91U A122G G136A	≤ -4.2
C8U A12G A28U G74A G81A C99U	-4.18
C8G G48C G80U G84U C125U G141U	≤ -4.2
C8U A17G G84U G133C	≤ -4.2
U9A A41U G74A A89G C132U	≤ -4.2
U9A A91C C116G U148A	-3.93
C8G U44A A52C C75A A91G U148G	≤ -4.2
C8U C18G C35A U53A G58C	≤ -4.2
U9A U55A C85U G94A C114U G140C	≤ -4.2
C8G A29C U55G A60G C85G A89G G140C	≤ -4.2
U9A A73G	≤ -4.2

Variant	polymerase ribozyme fitness (log ratio)
C8U A41C G46C G71A G83U C116G	≤ -4.2
U9A C14A A23U A30C C36A C95U A110U	≤ -4.2
U9A A24G C54A C87G	≤ -4.2
C8U U31G	-3.21
C8U G84U	-4.13
C8G G143C	-4.08
C8G A29C G34C U78G G86U A97C C149U	≤ -4.2
C8G A30G G48A C69G G86A G143U	-4.06
U9A C32G C54A G86C U109G G136A	≤ -4.2
U9A A23G G68C C79U G94C C105G G143A	≤ -4.2
U9C A30G A66C G84A A150C	≤ -4.2
C8U A20G U33A U56A C95A C131A	≤ -4.2
C8G A24U A29G C54G C57U G94A A98G U135G	≤ -4.2
C8U A12G A28C C38U C57G C95U	≤ -4.2
C8U U15G A17G A30G U44G C76A C87A	≤ -4.2
C8U C38U G48A A60C C72G C96A C99U C114G U139G U148G	≤ -4.2
C8A C43U G46A A73G C85U U134G U151A	≤ -4.2
C8U C87U	-2.59
C8G C79A A91U A107C G124C U144C	≤ -4.2
C8U A19C A40G C57U G92U G140A U146A	≤ -4.2
U9A U31G U53G G88A G126U A150C	≤ -4.2
U9A C96U A110C	≤ -4.2
C8U C27G A40G U78G C85G A98C A150G	≤ -4.2
U9A A12C A23G G42C C51A A120C A121U	≤ -4.2

Variant	polymerase ribozyme fitness (log ratio)
C8U A28U G62U A113C	≤ -4.2
C8U A29G A52G U56A U127G	≤ -4.2
C8U A106G	-2.98
U9C C14U C76A C87G	≤ -4.2
U9A C32A U55G G88U U109A	≤ -4.2
C8U A12G A52G A98U	-2.99
U9A A23U U77A	≤ -4.2
U9A A22G G34A A106G C116U A120U	≤ -4.2
U9C C10G C36G U55A G84A G126A	≤ -4.2
U9A A26G A66C A122U A137U G143C U145A	≤ -4.2
C8U A28G G34A C36U G86U A91G A110U	-4.19
C8U A20U G46C G59U A60C C63U G83U C87U A97U U145A	≤ -4.2
C8A G88U G92U C95U A106C U127G	≤ -4.2
U9C A23U A24G C38G A89G A91U	≤ -4.2
U9A G59A A60C C93U	≤ -4.2
C8A U55A G84U C85A	≤ -4.2
C8U A52G C85A A119U U130G	≤ -4.2
C8A C27A C57G G92A	≤ -4.2
U9A G11A C14U A19G C76A U82G C103A C116U	≤ -4.2
U9C A28U A30C U61A G88A A91U G92A A119U	≤ -4.2
C8U A98U U135G U148C	≤ -4.2
C8G U13G C116G	-3.71
U9A A20U A28U C79A C87U U139A	≤ -4.2

Source: the RNAGym collection of RNA variant scans (doi:10.1073/pnas.2313332121)
